The text below walks through data of article PMC8560915, “Nematode CDC-37 and DNJ-13 form complexes and can interact with HSP-90” (Scientific Reports, 2021).

B1: DNJ-13 (natural protein)
chain: not shown
notes: DNJ-13, cytosolic Hsp40-like J domain protein of C. elegans; cDNA in pET28b after the N-terminal His6 tag; called full-length in the results; also called full-length DNJ-13; DNJ-13 dimer; source: E. coli BL21-CodonPlus(DE3)RIL, purified (HisTrap FF, ResourceS ion exchange, Superdex 75 SEC)
B2: Labeled CDC-37 (*CDC-37) (natural protein, nematode, UniProt O02108 1-370, looked up)
chain: MPIDYSKWKDIEVSDDEDDTHPNIDTPSLFRWRHQARLERMAEKKMEQEKIDKEKGTTSKKMEELEKKLAAADVTDKSDIQKQIDEVKAQEEAWRKKEAELEEKERLEPWNVDTIGHEAFSTSRINKITEKKPQAPKTDEEDTHAMSTFFETHESLLEKMAVLKNGAKSTELFLAEHPHMASEYTANWLTIEALNAAIDFNEEKMKTMAEQCIIIQYLLELSKSLNAVATNTTVQKQFFKKFEAAEPVYMKHYQDEVKAFEDRLRTRAQTKRDAAMEEAEAEEKAERMKSAPGGIDPQEVFEQLPEEMRKCFEAHDIEALKGVAQKMDEEVFKYHFDRCIASGLWVPGKADDDDDDEEAAPAEEEPTTSS
modifications: ATTO 488 C5-maleimide at its cysteine residues
notes: CDC-37, kinase-specific Hsp90 cofactor of nematodes; same protein as m1, labeled at cysteines; The methods name ATTO 488 C5-maleimide, the results call the label AlexaFluor 488; also called fluorescently labeled CDC-37; AlexaFluor 488-labeled CDC-37

Data set [1] deals with B2. In words: AUC; fluorescence AUC titration, 100 nM *CDC-37 with 0-10 µM DNJ-13; sedimentation coefficients against DNJ-13 concentration fitted with a Michaelis-Menten function; approximate KD. Conditions: both partners purified.
Sequence of DNJ-13 (Q20774 entry or part of it): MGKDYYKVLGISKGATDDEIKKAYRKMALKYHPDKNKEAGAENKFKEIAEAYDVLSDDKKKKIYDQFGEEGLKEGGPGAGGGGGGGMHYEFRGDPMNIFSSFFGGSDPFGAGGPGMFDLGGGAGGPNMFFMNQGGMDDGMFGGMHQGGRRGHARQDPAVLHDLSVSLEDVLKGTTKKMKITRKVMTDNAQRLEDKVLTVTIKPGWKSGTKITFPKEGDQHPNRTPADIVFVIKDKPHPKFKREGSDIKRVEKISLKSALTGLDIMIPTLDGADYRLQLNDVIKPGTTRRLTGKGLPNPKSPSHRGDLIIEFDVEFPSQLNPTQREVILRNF
Data set [2] concerns the molecule itself. In words: cross-linking; isotope labeled BS3-H12/D12 and DSSG-H6/D6; 16 µM DNJ-13 and 16 µM CDC-37; bands cut from SDS-PAGE, tryptic digest, nanoLC-ESI-MS/MS; crosslinks identified with xMASS and pLink2.0.
For data set [3], the target named is T1, HSP-90 (nematode, UniProt Q18688 1-702).
T1 construct: HSP-90 of nematodes, the chaperone for which CDC-37 acts as co-chaperone; the construct is not described
Put plainly: AUC; sedimentation velocity with fluorescence detection; 300 nM *CDC-37 with or without 2 µM binding partners; 42,000 rpm, 20 °C; 40 mM HEPES/KOH pH 7.5, 20 mM KCl, 1 mM DTT, 5 mM MgCl2; with and without ATPγS for HSP-90. Conditions: both partners purified.

Data set [4] deals with B1. Put plainly: AUC; sedimentation velocity with UV/Vis absorbance, non-labeled proteins, 0.5 mg/ml protein; 10 µM DNJ-13 with substoichiometric, equal or excess CDC-37; 2DSA analysis in UltraScan III. The following applies: both partners purified.

In general, Kd refers to a measure of binding affinity in units of concentration. Higher therefore signals lower affinity. As a reminder, the stoichiometry N is the number of molecules, sites or subunits per partner or assembly. For the molecule B1, the Kd in data set [1] is approximately 3000 nM. Also, the “stoichiometry N” value in data set [2] worked out at 2.

Consider B2, for which the binding result in data set [3] was “binds”.

B3: CDC-37 (natural protein, nematode, UniProt O02108 1-370, looked up)
chain: MPIDYSKWKDIEVSDDEDDTHPNIDTPSLFRWRHQARLERMAEKKMEQEKIDKEKGTTSKKMEELEKKLAAADVTDKSDIQKQIDEVKAQEEAWRKKEAELEEKERLEPWNVDTIGHEAFSTSRINKITEKKPQAPKTDEEDTHAMSTFFETHESLLEKMAVLKNGAKSTELFLAEHPHMASEYTANWLTIEALNAAIDFNEEKMKTMAEQCIIIQYLLELSKSLNAVATNTTVQKQFFKKFEAAEPVYMKHYQDEVKAFEDRLRTRAQTKRDAAMEEAEAEEKAERMKSAPGGIDPQEVFEQLPEEMRKCFEAHDIEALKGVAQKMDEEVFKYHFDRCIASGLWVPGKADDDDDDEEAAPAEEEPTTSS
notes: CDC-37, kinase-specific Hsp90 cofactor of nematodes; cDNA in pET28b after the N-terminal His6 tag; called full-length in the results; Cleavage of the His6 tag is not mentioned; also called full-length CDC-37; FL; source: E. coli BL21-CodonPlus(DE3)RIL, purified (HisTrap FF, ResourceS ion exchange, Superdex 75 SEC)
B3: the “stoichiometry N” value in data set [4] is 1 CDC-37 per DNJ-13 dimer.
